From article doi:10.1101/395996, “An interaction network of the human SEPT9 established by quantitative mass spectrometry reveals an interplay with myosin motors” (bioRxiv, 2018)
Values belong to the binder of their own block, whether it stands above or below them.

Target: T1, 6his-SEPT9 (human, UniProt Q9UHD8 2-586)
T1 construct: SEPT9, human, PCR amplified from the GFP-SEPT9_i1 plasmid; the forward primer starts at the second codon (aag aag tct tac tca gga gg), the reverse primer holds the stop codon; also called 6his tagged SEPT9; 6his-tagged SEPT9; source: E. coli, purified (IMAC, approx. 70 % purity; desalted into PBS); not shown: His6, N-terminal, kept
T1 sequence (looked up): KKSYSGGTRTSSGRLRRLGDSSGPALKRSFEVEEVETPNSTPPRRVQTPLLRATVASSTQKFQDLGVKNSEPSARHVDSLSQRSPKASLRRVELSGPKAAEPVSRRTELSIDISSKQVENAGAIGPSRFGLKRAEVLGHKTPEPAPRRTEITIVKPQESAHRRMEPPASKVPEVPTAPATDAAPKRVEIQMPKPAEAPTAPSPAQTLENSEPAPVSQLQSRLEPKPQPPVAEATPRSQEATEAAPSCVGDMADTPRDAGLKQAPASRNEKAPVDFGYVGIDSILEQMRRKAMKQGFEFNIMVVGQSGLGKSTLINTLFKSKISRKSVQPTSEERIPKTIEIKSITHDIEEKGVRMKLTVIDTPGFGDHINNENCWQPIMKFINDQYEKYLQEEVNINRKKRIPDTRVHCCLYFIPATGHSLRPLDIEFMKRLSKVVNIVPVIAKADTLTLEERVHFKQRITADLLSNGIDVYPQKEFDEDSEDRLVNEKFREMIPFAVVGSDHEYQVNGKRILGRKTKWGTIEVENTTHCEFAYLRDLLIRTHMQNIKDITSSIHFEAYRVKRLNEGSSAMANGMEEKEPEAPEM
Assay: pull-down; GST fusions immobilised on Glutathione Sepharose from crude E. coli extract, incubated with 2 µM 6his-SEPT9 for 1 h in PBS; Western blot with anti-6his antibody; free GST as control
Settings: both partners purified

binding result: binds
B1: GST-MYO6_(835-1294) (domain or fragment, UniProt Q9UM54 835-1294, looked up)
chain: PRIDGLVKVGTLKKRLDKFNEVVSVLKDGKPEMNKQIKNLEISIDTLMAKIKSTMMTQEQIQKEYDALVKSSEELLSALQKKKQQEEEAERLRRIQEEMEKERKRREEDEKRRRKEEEERRMKLEMEAKRKQEEEERKKREDDEKRIQAEVEAQLARQKEEESQQQAVLEQERRDRELALRIAQSEAELISDEAQADLALRRSLDSYPVSKNDGTRPKMTPEQMAKEMSEFLSRGPAVLATKAAAGTKKYDLSKWKYAELRDTINTSCDIELLAACREEFHRRLKVYHAWKSKNKKRNTETEQRAPKSVTDYDFAPFLNNSPQQNPAAQIPARQREIEMNRQQRFFRIPFIRPADQYKDPQSKKKGWWYAHFDGPWIARQMELHPDKPPILLVAGKDDMEMCELNLEETGLTRKRGAEILPRQFEEIWERCGGIQYLQNAIESRQARPTYATAMLQSLLK
notes: cloned in pGEX2T; also called C-terminal tail fragment of MYO6; source: E. coli, immobilised on Glutathione Sepharose from the crude extract; not shown: GST, N-terminal, kept

binding result: binds
B2: GST-MYO1C_(809-1063) (domain or fragment, human, UniProt O00159 809-1063, looked up)
chain: LDHVRTSFLLNLRRQLPQNVLDTSWPTPPPALREASELLRELCIKNMVWKYCRSISPEWKQQLQQKAVASEIFKGKKDNYPQSVPRLFISTRLGTDEISPRVLQALGSEPIQYAVPVVKYDRKGYKPRSRQLLLTPNAVVIVEDAKVKQRIDYANLTGISVSSLSDSLFVLHVQRADNKQKGDVVLQSDHVIETLTKTALSANRVNSININQGSITFAGGPGRDGTIDFTPGSELLITKAKNGHLAVVAPRLNSR
notes: MYO1C, C-terminal tail fragment, amino acids 809-1063, amplified from cDNA of human 1306 fibroblast mRNA; cloned in pGEX2T; also called C-terminal tail fragment of MYO1C; source: E. coli, immobilised on Glutathione Sepharose from the crude extract; not shown: GST, N-terminal, kept
